The values below come from publication PMC8623652.

Bounds are passed on as bounds.

The target of assay [1] is NCS-1 in HEK293 cells transfected with NCS-1-pCI-neo (UniProt P62166). The assay is described as follows: Western blotting of cell lysates under non-reducing conditions (disulfide dimer); HEK293 cells transfected with NCS-1, 10 mM H2O2 for 30 min or longer, with or without Ca2+/ionomycin, EGTA, or Zn2+ with chloroquine; lysis with 10 mM iodoacetamide; dimer fraction by densitometry.

The target in assay [2] is Neuronal calcium sensor-1 (NCS-1), recombinant, myristoylated, reduced monomer (UniProt P62166). The assay is described as follows: SDS-PAGE under non-reducing conditions (disulfide dimer); preparation of dNCS-1: NCS-1 2 mg/mL dialysed against 20 mM Tris-HCl pH 8.0, 150 mM NaCl, 1 mM H2O2, 4 °C, 3 h.
Assay [3] has the same target. Description: SEC; analytical gel filtration on Superdex 75 10/300 GL, 20 mM Tris-HCl pH 8.0, 150 mM NaCl, 1 mM DTT (non-oxidizing), with 0.1 mM ZnCl2 or 1 mM EGTA.
Assay [4] has as its target Chimera GRK1^N-C, fusion protein containing regulatory domains of GRK1 (GRK1 1-191,512-557) (UniProt P28327). Description: SPR; GRK1^N-C immobilised by amine coupling on a ProteOn GLH chip (up to 12,000 RU); analyte NCS-1 or dNCS-1 0.5 to 20 μM; 25 °C; 10 mM HEPES pH 7.4, 150 mM NaCl, 1 mM CaCl2, 0.05% Tween 20; global fits by the heterogeneous ligand model (both) or the bivalent analyte model (dNCS-1).
UniProt P28327, sequence (P28327 other isoform, or with tags, fused parts or gaps mutant): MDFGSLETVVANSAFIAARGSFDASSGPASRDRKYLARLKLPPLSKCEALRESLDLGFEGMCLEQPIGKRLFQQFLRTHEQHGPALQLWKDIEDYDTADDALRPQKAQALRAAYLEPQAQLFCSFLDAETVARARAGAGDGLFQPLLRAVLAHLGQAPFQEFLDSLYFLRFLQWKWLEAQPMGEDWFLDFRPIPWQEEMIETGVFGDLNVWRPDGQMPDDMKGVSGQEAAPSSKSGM

Assay [5] concerns the target Neuronal calcium sensor-1 (NCS-1), recombinant, myristoylated, reduced monomer (UniProt P62166). Description: SDS-PAGE under non-reducing conditions (disulfide dimer); 20 μM reduced NCS-1 with 0.1–1000 μM H2O2, 20 mM Tris-HCl pH 8.0, 150 mM NaCl, with 1 mM MgCl2, 1 mM CaCl2, 0.1 mM ZnCl2 or their combinations (1% SDS in controls), 37 °C, 30 min; densitometry.
For assay [6] the target is unchanged. The assay is described as follows: redox equilibrium with GSSG/GSH, SDS-PAGE under non-reducing conditions; 1.5 µM dNCS-1, 50 mM HEPES pH 7.4, 100 mM KCl, 0.1 mM CaCl2 or 1 mM MgCl2, 0.1 mM GSSG and 8.8 µM–72.4 mM GSH, anaerobic, 35 °C, 62 h; densitometry.

In assay [1], “NCS-1 in HEK293 cells transfected with NCS-1-pCI-neo (from UniProt P62166 1-190) (natural protein)” gave a dimer content (prolonged incubation with Zn2+/H2O2) of 25 to 30%; a fraction of dNCS-1 of total protein (H2O2 after Zn2+ with chloroquine) of 9%; a fraction of the dimer of total NCS-1 (10 mM H2O2, 30 min) of 4 to 5%; a stoichiometry N of 2.

For “Neuronal calcium sensor-1 (NCS-1), recombinant, myristoylated, reduced monomer (from UniProt P62166 1-190) (natural protein)”, in assay [2], the dNCS-1 in the dialysis mixture (1 mM H2O2) was 80%. Besides, the stoichiometry N in assay [3] was 2. Further, in assay [4], the KD 1 (heterogeneous ligand model) turned out to be 590 nM, the KD 2 (heterogeneous ligand model) worked out at 2700 nM, the koff 1 (heterogeneous ligand model) worked out at 0.00016 s⁻¹ and the koff 2 (heterogeneous ligand model) stood at 0.0044 s⁻¹. For the same substance, in assay [4], the kon 1 (heterogeneous ligand model) was determined as 267 M⁻¹ s⁻¹ and the kon 2 (heterogeneous ligand model) stood at 1910 M⁻¹ s⁻¹. In assay [5], the dimer content (Zn2+-bound NCS-1, H2O2) turned out to be 75%; the dimer fraction of total protein (the forms of Figure 4B, H2O2) is < 30%; the stoichiometry N was 2. Besides, the dNCS-1 of total NCS-1 (Ca2+, Eh GSSG/GSH ~ −220 mV) in assay [6] lay within 5 to 10%.
